This is an account of results in patent publication US8217140B2, “Peptides capable of binding to serum proteins and compounds, constructs and polypeptides comprising the same” (Ablynx N.V., priority 2008, dated 2012).

The conditions of series [1]: cynomolgus monkey, in vivo; for AUCinf / C0: 2 mg/kg. The method, then: The pharmacokinetic profile of the constructs was analyzed in male cynomolgus monkeys of approximately 3 to 4 years old and was compared to the reference (SEQ ID NO:165). The constructs and the control were each injected in three monkeys at a dose of 2 mg/kg via an intravenous bolus injection. Blood samples were taken at predose, 5 min, 20 min, 1 h, 2 h, 4 h, 8 h (test day 1) after administration and at test days 2, 3, 5, 7, 9, 12, 15, 18, 21, 24, 27, 30, 33. In order to obtain at least 1 mL plasma per animal per sampling time, a sufficient volume of whole blood was withdrawn per sampling time. Plasma was collected after whole blood centrifugation for 30 minutes at 2200 g at room temperature (RT). The plasma samples were stored at −80° C. until analysis.
For bioanalytical determination of constructs and control article in monkey plasma, plasma samples were tested for levels of constructs and the control using ELISA based PK assays. The detection of control and constructs in the ELISA assays is based on the binding of these Nanobodies with vWF and the assay set-ups are as such that total vWF-binding Nanobody is detected.
For the reference (SEQ ID NO:165) and the construct of SEQ ID NO:167, 96-well microtiter plates (Maxisorp, Nunc, Wiesbaden, Germany) were coated overnight at 4° C. with neutravidin (Pierce) in 10:10 buffer at 3 μg/ml. Wells were aspirated and blocked for 1 hour at RT with PBS/1% casein. After this blocking step, wells were washed with PBS/0.05% Tween20. A biotinylated bivalent Nanobody against the constructs was added to the neutravidin coated plate at 2 μg/ml in PBS/0.1% casein and incubated for 1 hour at RT. After the incubation step of this capture tool, wells were washed 3 times with PBS/0.05% Tween20.
Preparations of the standards, QC samples and dilutions of the test samples were performed in a non-coated (polypropylene) plate. For the standard curve and QC-samples, solutions at the required concentrations were prepared in PBS/0.1% casein and spiked into 100% monkey plasma. To prepare standards and QC samples, a 1/100 dilution of the pure monkey plasma dilutions was made in IgM-Reducing Agent (Immunochemistry Technologies, Bloomington, USA) supplemented with 2.5% pooled human plasma (referred to as sample diluent). For the test samples, dilution factors for the test samples were estimated, and ranged between 1/100 to 1/9000 for the reference of SEQ ID NO:165 tests and between 1/100 and 12000 for the construct of SEQ ID NO: 167. Samples were diluted 1/100 in sample diluent in a first step, and if needed, further dilution was done in sample diluent supplemented with 1% cynomolgus plasma.
Standards, QC samples and diluted test samples were transferred onto the coated plate and incubated for 1 hour at RT. Afterwards the plates were washed followed by a complexation step with purified vWF (ZLB Behring). vWF diluted to 2.5 μg/ml for the assay for the reference of SEQ ID NO:165 and to 3 μg/ml for the assay for the construct of SEQ ID NO: 167 in PBS/0.1% casein was incubated on the plates for 30 minutes at RT. Plates were washed and Nanobody/vWF complexes bound to the capture tool detected with Rabbit anti-human vWF Ab (Dako, Denmark), diluted 1/2000 in PBS/0.1% casein and incubated for 30 minutes at RT. After washing, a 1/15000 dilution in PBS/0.1% casein of Horse-Radish-Peroxidase labelled goat anti-rabbit Ab (Dako, Denmark) was added to the plate and incubated for 30 minutes at RT. The enzyme coupled to the Ab catalyzes a chemical reaction with the substrate sTMB (3,3′,5,5′-tetramethylbenzidine, SDT reagents, Brussels, Belgium), resulting in a colorimetric change. After stopping this reaction after 10 minutes using HC1 (1N), the intensity of the colour was measured using a spectrophotometer at 450 nm. […]

Another series relates to VWF. Put plainly: Pharmacodynamic profile: ristocetin cofactor activity assay (% RICO) after i.v. administration. Type of series: in vivo, Cynomolgus monkey. To be noted: for Tonset values: estimated, i.v. application; for AUC below T / Time below T: threshold 20% RICO, male Cynomolgus monkey, mean n = 3; for AUC below T / Time below T / Tonset / Toffset: i.v. bolus 2 mg/kg; for Tonset: time % RICO first drops below threshold; for Toffset: time % RICO first returns above threshold. As to the method:
For the constructs used in Example 14, pharmacodynamic characteristics upon compound administration were measured by means of a ristocetin cofactor activity assay (Biopool). The ristocetin cofactor activity is a functional assay for VWF, measuring the capacity of VWF to interact with the platelet receptor glycoprotein Ib using ristocetin as a modulator.
For pharmacodynamic data analysis, descriptive statistics (mean and SD) were calculated per dose group and per sampling time point using Microsoft Excel 2007. Response parameters and associated statistics for the overall time course were calculated by noncompartmental analysis of the response-time data using WinNonlin Pro 5.1 (Pharsight Corporation, USA; 2006). The non-compartmental analysis was based on a model for pharmacodynamic data (Model 220). The threshold value was set at 20% based on extensive historical PK/PD data on the vWF-0001 compound. Preclinical studies have shown that a complete inhibition of the pharmacodynamic marker are correlated with full antithrombotic efficacy. The following main pharmacodynamic parameters were determined: time below the threshold (Time below T), area under the threshold (AUC below T), time at which the % RICO first drops below the threshold (Tonset), and time at which the % RICO first returns back above the threshold (Toffset).

In series [2] the target is Cynomolgus monkey serum albumin (Macaca fascicularis, UniProt A2V9Z4). In words: Surface plasmon resonance (BIAcore 3000) of MycHis tagged 2D3-Expedite fusions, Example 10. In kind it is binding. To be noted: for ka / koff (dissociation rate constant): Cynomolgus monkey serum albumin; for ka: chip ~3000 RU; for binding to CSA compared to 2D3-9GS-56E4-MycHis: FIG. 8B. The method, then: (§1) The binding of the resulting 2D3-9GS-56E4-MycHis, 2D3-9GS-59C2-MycHis, 2D3-9GS-59F2-MycHis and 2D3-9GS-59H12-MycHis fusion proteins to human and cynomolgus serum albumin (HSA and CSA respectively) was determined using surface plasmon resonance analysis. For this purpose, binding to HSA and CSA was assessed in BIAcore™ 3000, by injecting concentration series of the fusion proteins ranging from 2 μM to 200 nM on a CM5 chip coated with ˜3000 RU HSA or CSA. Coating of the chip (CM5) was performed by amine coupling using NHS/EDC for activation and ethanolamine for deactivation (Biacore amine coupling kit). HBS-EP was used as flow buffer at a rate of 45 μl min-1. 90 μl of sample was injected for 120 s.

Another series deals with human serum albumin (Homo sapiens, UniProt P02768). The description is as above. Type of series: binding. To be noted: for binding to HSA compared to 2D3-9GS-56E4-MycHis: FIG. 8A; for ka / dissociation rate constant (koff): Human serum albumin; for ka: chip ~3000 RU. The method, then: as §1

Residue numbers refer to the chain shown, from its start.

Chain of Cynomolgus monkey serum albumin (A2V9Z4 25-608): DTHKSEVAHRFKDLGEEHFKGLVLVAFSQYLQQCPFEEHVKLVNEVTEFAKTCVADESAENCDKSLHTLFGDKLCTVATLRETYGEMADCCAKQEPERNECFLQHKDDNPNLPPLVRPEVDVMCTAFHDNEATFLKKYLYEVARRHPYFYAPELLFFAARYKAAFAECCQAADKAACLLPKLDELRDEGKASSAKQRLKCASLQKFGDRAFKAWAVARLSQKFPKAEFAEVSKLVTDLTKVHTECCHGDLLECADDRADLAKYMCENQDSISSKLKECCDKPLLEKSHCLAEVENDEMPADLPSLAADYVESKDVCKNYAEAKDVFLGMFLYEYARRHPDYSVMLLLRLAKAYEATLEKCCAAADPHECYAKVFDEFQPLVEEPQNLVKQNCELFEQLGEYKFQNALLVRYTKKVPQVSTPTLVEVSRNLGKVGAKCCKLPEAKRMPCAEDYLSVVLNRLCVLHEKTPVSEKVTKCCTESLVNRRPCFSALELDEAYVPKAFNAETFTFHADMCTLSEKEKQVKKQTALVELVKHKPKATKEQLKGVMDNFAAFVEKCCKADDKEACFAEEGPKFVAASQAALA

B1: 12A2_sv1-AAA-12A2_sv1 (protein)
chain: DVQLVESGGGLVQPGGSLRLSCAASGRTFSYNPMGWFRQAPGKGRELVAAISRTGGSTYYPESVEGRFTISRDNAKRTVYLQMNSLRAEDTAVYYCAAAGVRAEQGRVRTLPSEYTFWGQGTQVTVSSAAAEVQLVESGGGLVQPGGSLRLSCAASGRTFSYNPMGWFRQAPGKGRELVAAISRTGGSTYYPESVEGRFTISRDNAKRTVYLQMNSLRAEDTAVYYCAAAGVRAEQGRVRTLPSEYTFWGQGTQVTVSS
For the molecule B1, in series [1], the “plasma level after the initial drop” value was around 2000 ng/mL. In series [1] (iv), the “plasma level directly after i.v. injection” value is reported as “about 45 ug/ml”, the AUCinf was determined as 62.6 µg·h/mL and the C0 worked out at 45300 ng/mL. In the series with VWF, the “Tonset values” is around 5 min, the “AUC below T” value was found to be 6.60 % RICO * h, the “Time below T” value is on record as 1.21 h and the Tonset was 0.077 h. Also, the Toffset with VWF stood at 1.28 h.

B2: 2D3-9GS-59C2-MycHis: SEQ ID NO: 160 (protein)
chain: EVQLVESGGSLVQPGGSLRLSCAASGFTFDDYAMSWVRQVPGKGLEWVSSINWSGTHTDYADSVKGRFTISRNNANNTLYLQMNSLKSEDTAVYYCAKNWRDAGTTWFEKSGSAGQGTQVTVSSGGGGSGGGSAAARDWDFDVFGGGTPVGGAAAEQKLISEEDLNGAAHHHHHH
modifications: Myc-His tag
In the case of B2, in series [2], the ka was 2.75E+03 1/ms, the “koff (dissociation rate constant)” value is 0.00213 s⁻¹ and the “binding to CSA compared to 2D3-9GS-56E4-MycHis” value was “improved binding”. For the same molecule, in the series with human serum albumin, the “binding to HSA compared to 2D3-9GS-56E4-MycHis” value is “improved binding”, the ka was 3.73E+03 1/ms and the “dissociation rate constant (koff)” value turned out to be 0.00179 s⁻¹.

B3: 2D3-9GS-59H12-MycHis: SEQ ID NO: 161 (protein)
chain: B2 chain with D138S
modifications: Myc-His tag
On to B3, for which, in series [2], the ka is given as 3.45E+03 1/ms, the “koff (dissociation rate constant)” value worked out at 0.00441 s⁻¹ and the “binding to CSA compared to 2D3-9GS-56E4-MycHis” value is “improved binding”. For the same molecule, in the series with human serum albumin, the “binding to HSA compared to 2D3-9GS-56E4-MycHis” value is “improved binding”, the ka is on record as 4.59E+03 1/ms and the “dissociation rate constant (koff)” value is 0.00304 s⁻¹.

B4: 2D3-9GS-59F2-MycHis: SEQ ID NO: 159 (protein)
chain: B2 chain with D138Y
modifications: Myc-His tag
For the molecule B4, in series [2], the ka was 4.85E+03 1/ms, the “koff (dissociation rate constant)” value came out at 0.00504 s⁻¹ and the “binding to CSA compared to 2D3-9GS-56E4-MycHis” value was “improved binding”. Further, in the series with human serum albumin, the “binding to HSA compared to 2D3-9GS-56E4-MycHis” value is on record as “improved binding”, the ka is 6.14E+03 1/ms and the “dissociation rate constant (koff)” value came out at 0.00351 s⁻¹.

B5: 12A2_sv1-9GS-59C2-9GS-12A2_sv1 (protein)
chain: DVQLVESGGGLVQPGGSLRLSCAASGRTFSYNPMGWFRQAPGKGRELVAAISRTGGSTYYPESVEGRFTISRDNAKRTVYLQMNSLRAEDTAVYYCAAAGVRAEQGRVRTLPSEYTFWGQGTQVTVSSGGGGSGGGSRDWDFDVFGGGTPVGGGGGGSGGGSEVQLVESGGGLVQPGGSLRLSCAASGRTFSYNPMGWFRQAPGKGRELVAAISRTGGSTYYPESVEGRFTISRDNAKRTVYLQMNSLRAEDTAVYYCAAAGVRAEQGRVRTLPSEYTFWGQGTQVTVSS
Consider B5, for which, in series [1], the “Vdss lower relative to vWF0001” value is given as 12 fold, the “dominant half-life (t½ dominant) increase relative to vWF0001” value came to 70 fold and the “mean CL decrease compared to the control” value was 22 fold. In series [1] (iv), the AUCinf stood at 1320 µg·h/mL and the C0 stood at 48900 ng/mL. For the same molecule, in the series with VWF, the “Tonset values” was around 5 min, the “AUC below T” value turned out to be 379 % RICO * h, the “Time below T” value is reported as 39.9 h and the Tonset is 0.079 h. The same molecule registered a Toffset in the series with VWF of 40.0 h. Moreover, in the series on VWF (i.v. bolus), the “mean AUC under the threshold increase relative to vWF0001” value was determined as 57 fold and the “time below the threshold increase relative to vWF0001” value is given as 33 fold.
